Target: T1, APBA2_2, Q99767
T1 sequence (Q99767 654-744, limits assumed, looked up): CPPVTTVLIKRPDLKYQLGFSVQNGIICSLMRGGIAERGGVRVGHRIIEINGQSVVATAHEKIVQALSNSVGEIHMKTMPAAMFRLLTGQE
Assay: holdup assay
Set-up: key: below the threshold = too weak to quantify, mostly under pKd 3.1 to 4
Details: plain residues with an end cap or a label only (N-terminal biotin on a linker: ado-ado)

Binder | pKd
ILRKSTTTTV [PRR16, Q569H4] | below the threshold
LESTTVGTSV [KARS1, Q15046] | below the threshold

Target: T2, ARHGAP21, Q5T5U3
T2 sequence (Q5T5U3 45-169, limits assumed, looked up): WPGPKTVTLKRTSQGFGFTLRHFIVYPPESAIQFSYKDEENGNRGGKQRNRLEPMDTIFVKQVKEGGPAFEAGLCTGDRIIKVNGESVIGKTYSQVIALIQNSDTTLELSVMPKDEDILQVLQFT
Assay: holdup assay
Set-up: key: below the threshold = too weak to quantify, mostly under pKd 3.1 to 4
Details: plain residues with an end cap or a label only (N-terminal biotin on a linker: ado-ado)

Binder | pKd
ILRKSTTTTV [PRR16, Q569H4] | 3.92
LESTTVGTSV [KARS1, Q15046] | below the threshold

Target: DLG1_2, Q12959
Sequence (Q12959 314-412): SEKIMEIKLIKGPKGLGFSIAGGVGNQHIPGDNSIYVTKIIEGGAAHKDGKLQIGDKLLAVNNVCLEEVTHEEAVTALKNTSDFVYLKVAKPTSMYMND
Assay: holdup assay
Set-up: key: below the threshold = too weak to quantify, mostly under pKd 3.1 to 4
Details: plain residues with an end cap or a label only (N-terminal biotin on a linker: ado-ado)

Binder | pKd
ILRKSTTTTV [PRR16, Q569H4] | 5.43
LESTTVGTSV [KARS1, Q15046] | 4.34

Target: DLG2_3, Q15700
Assay: holdup assay
Set-up: key: below the threshold = too weak to quantify, mostly under pKd 3.1 to 4
Details: plain residues with an end cap or a label only (N-terminal biotin on a linker: ado-ado)

Binder | pKd
ILRKSTTTTV [PRR16, Q569H4] | 4.38
LESTTVGTSV [KARS1, Q15046] | 4.23

Target: DLG4_1, P78352
Sequence (P78352 62-152): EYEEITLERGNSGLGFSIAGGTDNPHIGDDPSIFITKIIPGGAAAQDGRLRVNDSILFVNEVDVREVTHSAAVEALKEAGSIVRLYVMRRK
Assay: holdup assay
Set-up: key: below the threshold = too weak to quantify, mostly under pKd 3.1 to 4
Details: plain residues with an end cap or a label only (N-terminal biotin on a linker: ado-ado)

Binder | pKd
ILRKSTTTTV [PRR16, Q569H4] | 4.78
LESTTVGTSV [KARS1, Q15046] | 4.13

Target: DLG4_2, P78352
Sequence (P78352 155-259): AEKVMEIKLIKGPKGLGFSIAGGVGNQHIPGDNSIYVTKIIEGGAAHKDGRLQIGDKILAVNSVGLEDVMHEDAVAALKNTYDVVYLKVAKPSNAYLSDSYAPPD
Assay: holdup assay
Set-up: key: below the threshold = too weak to quantify, mostly under pKd 3.1 to 4
Details: plain residues with an end cap or a label only (N-terminal biotin on a linker: ado-ado)

Binder | pKd
ILRKSTTTTV [PRR16, Q569H4] | 5.2
LESTTVGTSV [KARS1, Q15046] | 4.35

Target: DLG4_3, P78352
Sequence (P78352 306-403): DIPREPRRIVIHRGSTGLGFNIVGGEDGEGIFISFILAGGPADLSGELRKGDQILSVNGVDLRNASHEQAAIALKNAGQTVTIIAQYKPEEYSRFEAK
Assay: holdup assay
Set-up: key: below the threshold = too weak to quantify, mostly under pKd 3.1 to 4
Details: plain residues with an end cap or a label only (N-terminal biotin on a linker: ado-ado)

Binder | pKd
ILRKSTTTTV [PRR16, Q569H4] | 4.12
LESTTVGTSV [KARS1, Q15046] | 3.58

Target: FRMPD4, Q14CM0
Sequence (Q14CM0 67-160): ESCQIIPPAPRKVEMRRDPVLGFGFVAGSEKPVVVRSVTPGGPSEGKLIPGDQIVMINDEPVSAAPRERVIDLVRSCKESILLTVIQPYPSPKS
Assay: holdup assay
Set-up: key: below the threshold = too weak to quantify, mostly under pKd 3.1 to 4
Details: plain residues with an end cap or a label only (N-terminal biotin on a linker: ado-ado)

Binder | pKd
ILRKSTTTTV [PRR16, Q569H4] | below the threshold
LESTTVGTSV [KARS1, Q15046] | below the threshold

Target: GIPC2, Q8TF65
Sequence (Q8TF65 112-203): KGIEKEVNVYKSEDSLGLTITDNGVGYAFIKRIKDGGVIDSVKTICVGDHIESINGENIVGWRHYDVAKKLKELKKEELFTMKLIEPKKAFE
Assay: holdup assay
Set-up: key: below the threshold = too weak to quantify, mostly under pKd 3.1 to 4
Details: plain residues with an end cap or a label only (N-terminal biotin on a linker: ado-ado)

Binder | pKd
ILRKSTTTTV [PRR16, Q569H4] | below the threshold
LESTTVGTSV [KARS1, Q15046] | below the threshold

Target: GORASP2, Q9H8Y8
Assay: holdup assay
Set-up: key: below the threshold = too weak to quantify, mostly under pKd 3.1 to 4
Details: plain residues with an end cap or a label only (N-terminal biotin on a linker: ado-ado)

Binder | pKd
ILRKSTTTTV [PRR16, Q569H4] | 4.73
LESTTVGTSV [KARS1, Q15046] | below the threshold

Target: GRASP, Q7Z6J2
Sequence (Q7Z6J2 96-193): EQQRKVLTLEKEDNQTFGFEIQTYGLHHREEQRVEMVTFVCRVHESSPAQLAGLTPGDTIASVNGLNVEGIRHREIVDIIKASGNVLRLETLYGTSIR
Assay: holdup assay
Set-up: key: below the threshold = too weak to quantify, mostly under pKd 3.1 to 4
Details: plain residues with an end cap or a label only (N-terminal biotin on a linker: ado-ado)

Binder | pKd
ILRKSTTTTV [PRR16, Q569H4] | 4.41
LESTTVGTSV [KARS1, Q15046] | 3.95

Target: GRID2IP_2, A4D2P6
Sequence (A4D2P6 272-370): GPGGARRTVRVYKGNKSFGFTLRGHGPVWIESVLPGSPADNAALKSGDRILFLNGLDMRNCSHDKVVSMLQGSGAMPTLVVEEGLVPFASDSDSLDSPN
Assay: holdup assay
Set-up: key: below the threshold = too weak to quantify, mostly under pKd 3.1 to 4
Details: plain residues with an end cap or a label only (N-terminal biotin on a linker: ado-ado)

Binder | pKd
ILRKSTTTTV [PRR16, Q569H4] | 3.8
LESTTVGTSV [KARS1, Q15046] | 4.06

Target: GRIP2_5, Q9C0E4
Sequence (Q9C0E4 544-642): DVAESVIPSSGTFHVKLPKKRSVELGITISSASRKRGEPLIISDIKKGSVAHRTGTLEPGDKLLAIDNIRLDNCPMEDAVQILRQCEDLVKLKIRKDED
Assay: holdup assay
Set-up: key: below the threshold = too weak to quantify, mostly under pKd 3.1 to 4
Details: plain residues with an end cap or a label only (N-terminal biotin on a linker: ado-ado)

Binder | pKd
ILRKSTTTTV [PRR16, Q569H4] | below the threshold
LESTTVGTSV [KARS1, Q15046] | below the threshold

Target: HTRA1, Q92743
Sequence (Q92743 360-477): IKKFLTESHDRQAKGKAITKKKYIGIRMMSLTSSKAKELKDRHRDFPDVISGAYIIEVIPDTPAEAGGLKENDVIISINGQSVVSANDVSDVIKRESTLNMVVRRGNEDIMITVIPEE
Assay: holdup assay
Set-up: key: below the threshold = too weak to quantify, mostly under pKd 3.1 to 4
Details: plain residues with an end cap or a label only (N-terminal biotin on a linker: ado-ado)

Binder | pKd
ILRKSTTTTV [PRR16, Q569H4] | 4.06
LESTTVGTSV [KARS1, Q15046] | 3.95

Target: HTRA2, O43464
Sequence (O43464 355-458): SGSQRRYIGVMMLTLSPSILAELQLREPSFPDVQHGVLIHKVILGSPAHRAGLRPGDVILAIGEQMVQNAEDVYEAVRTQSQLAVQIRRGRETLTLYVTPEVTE
Assay: holdup assay
Set-up: key: below the threshold = too weak to quantify, mostly under pKd 3.1 to 4
Details: plain residues with an end cap or a label only (N-terminal biotin on a linker: ado-ado)

Binder | pKd
ILRKSTTTTV [PRR16, Q569H4] | below the threshold
LESTTVGTSV [KARS1, Q15046] | below the threshold

Target: IL16_1, Q14005
Sequence (Q14005 210-306): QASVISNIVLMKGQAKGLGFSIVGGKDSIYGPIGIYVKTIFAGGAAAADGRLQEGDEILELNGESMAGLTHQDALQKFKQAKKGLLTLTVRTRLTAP
Assay: holdup assay
Set-up: key: below the threshold = too weak to quantify, mostly under pKd 3.1 to 4
Details: plain residues with an end cap or a label only (N-terminal biotin on a linker: ado-ado)

Binder | pKd
ILRKSTTTTV [PRR16, Q569H4] | below the threshold
LESTTVGTSV [KARS1, Q15046] | 3.79

Target: IL16_4, Q14005
Sequence (Q14005 1229-1329): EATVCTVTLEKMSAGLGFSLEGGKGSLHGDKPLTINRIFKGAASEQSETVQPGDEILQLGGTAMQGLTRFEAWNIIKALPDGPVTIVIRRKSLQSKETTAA
Assay: holdup assay
Set-up: key: below the threshold = too weak to quantify, mostly under pKd 3.1 to 4
Details: plain residues with an end cap or a label only (N-terminal biotin on a linker: ado-ado)

Binder | pKd
ILRKSTTTTV [PRR16, Q569H4] | 3.54
LESTTVGTSV [KARS1, Q15046] | below the threshold

Target: Inadl_1, Q8NI35
Sequence (Q8NI35 113-229): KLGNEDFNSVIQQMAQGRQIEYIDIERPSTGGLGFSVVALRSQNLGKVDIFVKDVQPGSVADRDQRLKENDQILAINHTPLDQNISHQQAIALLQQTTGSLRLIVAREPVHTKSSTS
Assay: holdup assay
Set-up: key: below the threshold = too weak to quantify, mostly under pKd 3.1 to 4
Details: plain residues with an end cap or a label only (N-terminal biotin on a linker: ado-ado)

Binder | pKd
ILRKSTTTTV [PRR16, Q569H4] | below the threshold
LESTTVGTSV [KARS1, Q15046] | below the threshold

Target: Inadl_10, Q8NI35
Sequence (Q8NI35 1673-1763): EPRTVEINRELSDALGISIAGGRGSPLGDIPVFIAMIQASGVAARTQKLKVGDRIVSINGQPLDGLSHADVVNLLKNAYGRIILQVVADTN
Assay: holdup assay
Set-up: key: below the threshold = too weak to quantify, mostly under pKd 3.1 to 4
Details: plain residues with an end cap or a label only (N-terminal biotin on a linker: ado-ado)

Binder | pKd
ILRKSTTTTV [PRR16, Q569H4] | below the threshold
LESTTVGTSV [KARS1, Q15046] | below the threshold

Target: Inadl_6, Q8NI35
Sequence (Q8NI35 1058-1167): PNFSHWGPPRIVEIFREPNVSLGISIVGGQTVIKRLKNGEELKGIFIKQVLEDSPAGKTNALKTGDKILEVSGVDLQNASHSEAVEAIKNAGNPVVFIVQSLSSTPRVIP
Assay: holdup assay
Set-up: key: below the threshold = too weak to quantify, mostly under pKd 3.1 to 4
Details: plain residues with an end cap or a label only (N-terminal biotin on a linker: ado-ado)

Binder | pKd
ILRKSTTTTV [PRR16, Q569H4] | below the threshold
LESTTVGTSV [KARS1, Q15046] | below the threshold

Target: LAP2, Q96RT1
Sequence (Q96RT1 other isoform, or with tags, fused parts or gaps): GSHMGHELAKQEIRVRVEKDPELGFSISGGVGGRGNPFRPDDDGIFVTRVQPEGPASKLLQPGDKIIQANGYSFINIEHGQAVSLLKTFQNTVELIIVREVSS
Assay: holdup assay
Set-up: key: below the threshold = too weak to quantify, mostly under pKd 3.1 to 4
Details: plain residues with an end cap or a label only (N-terminal biotin on a linker: ado-ado)

Binder | pKd
ILRKSTTTTV [PRR16, Q569H4] | below the threshold
LESTTVGTSV [KARS1, Q15046] | 3.92

Target: LNX1_2, Q8TBB1
Sequence (Q8TBB1 371-470): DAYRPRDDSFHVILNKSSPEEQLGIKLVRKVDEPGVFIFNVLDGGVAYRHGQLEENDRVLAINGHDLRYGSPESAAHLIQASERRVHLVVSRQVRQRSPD
Assay: holdup assay
Set-up: key: below the threshold = too weak to quantify, mostly under pKd 3.1 to 4
Details: plain residues with an end cap or a label only (N-terminal biotin on a linker: ado-ado)

Binder | pKd
ILRKSTTTTV [PRR16, Q569H4] | 3.8
LESTTVGTSV [KARS1, Q15046] | below the threshold

Target: LNX1_3, Q8TBB1
Sequence (Q8TBB1 500-596): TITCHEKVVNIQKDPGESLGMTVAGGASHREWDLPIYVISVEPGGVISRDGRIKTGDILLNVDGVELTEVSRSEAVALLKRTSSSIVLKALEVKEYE
Assay: holdup assay
Set-up: key: below the threshold = too weak to quantify, mostly under pKd 3.1 to 4
Details: plain residues with an end cap or a label only (N-terminal biotin on a linker: ado-ado)

Binder | pKd
ILRKSTTTTV [PRR16, Q569H4] | below the threshold
LESTTVGTSV [KARS1, Q15046] | below the threshold

Target: MAGI2_4, Q86UL8
Sequence (Q86UL8 772-865): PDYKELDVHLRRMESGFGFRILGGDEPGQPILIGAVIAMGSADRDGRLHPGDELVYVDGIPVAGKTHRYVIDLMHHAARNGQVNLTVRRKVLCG
Assay: holdup assay
Set-up: key: below the threshold = too weak to quantify, mostly under pKd 3.1 to 4
Details: plain residues with an end cap or a label only (N-terminal biotin on a linker: ado-ado)

Binder | pKd
ILRKSTTTTV [PRR16, Q569H4] | 4.14
LESTTVGTSV [KARS1, Q15046] | 4.31

Target: MAGI2_5, Q86UL8
Sequence (Q86UL8 915-1017): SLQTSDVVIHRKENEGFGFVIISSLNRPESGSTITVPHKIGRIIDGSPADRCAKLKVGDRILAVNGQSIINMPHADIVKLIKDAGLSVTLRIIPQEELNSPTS
Assay: holdup assay
Set-up: key: below the threshold = too weak to quantify, mostly under pKd 3.1 to 4
Details: plain residues with an end cap or a label only (N-terminal biotin on a linker: ado-ado)

Binder | pKd
ILRKSTTTTV [PRR16, Q569H4] | below the threshold
LESTTVGTSV [KARS1, Q15046] | 4.06

Target: MAGI3_2, Q5TCQ9
Sequence (Q5TCQ9 398-503): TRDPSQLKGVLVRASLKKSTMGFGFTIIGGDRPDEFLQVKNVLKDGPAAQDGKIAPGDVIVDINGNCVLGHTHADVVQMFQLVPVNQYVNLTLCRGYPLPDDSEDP
Assay: holdup assay
Set-up: key: below the threshold = too weak to quantify, mostly under pKd 3.1 to 4
Details: plain residues with an end cap or a label only (N-terminal biotin on a linker: ado-ado)

Binder | pKd
ILRKSTTTTV [PRR16, Q569H4] | 5.15
LESTTVGTSV [KARS1, Q15046] | 4.09

Target: MAST1, Q9Y2H9
Sequence (Q9Y2H9 962-1065): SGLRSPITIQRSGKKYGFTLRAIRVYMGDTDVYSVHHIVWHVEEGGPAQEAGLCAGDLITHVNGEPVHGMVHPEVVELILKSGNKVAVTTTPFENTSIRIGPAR
Assay: holdup assay
Set-up: key: below the threshold = too weak to quantify, mostly under pKd 3.1 to 4
Details: plain residues with an end cap or a label only (N-terminal biotin on a linker: ado-ado)

Binder | pKd
ILRKSTTTTV [PRR16, Q569H4] | 4.29
LESTTVGTSV [KARS1, Q15046] | 4.53

Target: MAST2, Q6P0Q8
Sequence (Q6P0Q8 1099-1202): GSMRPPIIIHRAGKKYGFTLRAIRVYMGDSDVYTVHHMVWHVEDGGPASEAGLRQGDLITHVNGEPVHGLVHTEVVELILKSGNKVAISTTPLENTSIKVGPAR
Assay: holdup assay
Set-up: key: below the threshold = too weak to quantify, mostly under pKd 3.1 to 4
Details: plain residues with an end cap or a label only (N-terminal biotin on a linker: ado-ado)

Binder | pKd
ILRKSTTTTV [PRR16, Q569H4] | 5.05
LESTTVGTSV [KARS1, Q15046] | 5.02

Target: PDLIM1, O00151
Sequence (O00151 1-87): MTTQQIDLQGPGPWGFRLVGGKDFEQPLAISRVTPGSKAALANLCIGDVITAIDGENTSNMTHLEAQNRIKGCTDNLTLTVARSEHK
Assay: holdup assay
Set-up: key: below the threshold = too weak to quantify, mostly under pKd 3.1 to 4
Details: plain residues with an end cap or a label only (N-terminal biotin on a linker: ado-ado)

Binder | pKd
ILRKSTTTTV [PRR16, Q569H4] | below the threshold
LESTTVGTSV [KARS1, Q15046] | below the threshold

Target: T3, PDZD2_2, O15018
T3 sequence (O15018 329-429, limits assumed, looked up): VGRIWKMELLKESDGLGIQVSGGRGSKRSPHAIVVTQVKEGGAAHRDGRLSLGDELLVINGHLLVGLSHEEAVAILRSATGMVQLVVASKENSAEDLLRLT
Assay: holdup assay
Set-up: key: below the threshold = too weak to quantify, mostly under pKd 3.1 to 4
Details: plain residues with an end cap or a label only (N-terminal biotin on a linker: ado-ado)

Binder | pKd
ILRKSTTTTV [PRR16, Q569H4] | 4.18
LESTTVGTSV [KARS1, Q15046] | 4.87

Target: T4, RADIL, Q96JH8
T4 sequence (Q96JH8 971-1071, limits assumed, looked up): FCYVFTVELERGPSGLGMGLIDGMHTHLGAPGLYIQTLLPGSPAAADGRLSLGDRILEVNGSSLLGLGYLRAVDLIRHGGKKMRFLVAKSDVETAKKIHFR
Assay: holdup assay
Set-up: key: below the threshold = too weak to quantify, mostly under pKd 3.1 to 4
Details: plain residues with an end cap or a label only (N-terminal biotin on a linker: ado-ado)

Binder | pKd
ILRKSTTTTV [PRR16, Q569H4] | 3.64
LESTTVGTSV [KARS1, Q15046] | below the threshold

Target: T5, SHANK1, Q9Y566
T5 sequence (Q9Y566 658-767, limits assumed, looked up): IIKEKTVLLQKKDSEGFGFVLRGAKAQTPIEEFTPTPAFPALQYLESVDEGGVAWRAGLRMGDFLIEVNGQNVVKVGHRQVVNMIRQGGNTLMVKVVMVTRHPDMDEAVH
Assay: holdup assay
Set-up: key: below the threshold = too weak to quantify, mostly under pKd 3.1 to 4
Details: plain residues with an end cap or a label only (N-terminal biotin on a linker: ado-ado)

Binder | pKd
ILRKSTTTTV [PRR16, Q569H4] | below the threshold
LESTTVGTSV [KARS1, Q15046] | 3.71

Target: T6, SNTB1, Q13884
T6 sequence (Q13884 107-205, limits assumed, looked up): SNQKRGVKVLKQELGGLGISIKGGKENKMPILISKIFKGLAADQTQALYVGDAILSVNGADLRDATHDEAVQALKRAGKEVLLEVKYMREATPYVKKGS
Assay: holdup assay
Set-up: key: below the threshold = too weak to quantify, mostly under pKd 3.1 to 4
Details: plain residues with an end cap or a label only (N-terminal biotin on a linker: ado-ado)

Binder | pKd
ILRKSTTTTV [PRR16, Q569H4] | 3.85
LESTTVGTSV [KARS1, Q15046] | 3.85

From paper PMC9482650, “Quantitative fragmentomics allow affinity mapping of interactomes” (Nature Communications, 2022)
